IntAct's records for PubMed 32073997

B1: AKT-interacting protein (Homo sapiens), Q9H8T0 (parent)
chain: MNPFWSMSTSSVRKRSEGEEKTLTGDVKTSPPRTAPKKQLPSIPKNALPITKPTSPAPAAQSTNGTHASYGPFYLEYSLLAEFTLVVKQKLPGVYVQPSYRSALMWFGVIFIRHGLYQDGVFKFTVYIPDNYPDGDCPRLVFDIPVFHPLVDPTSGELDVKRAFAKWRRNHNHIWQVLMYARRVFYKIDTASPLNPEAAVLYEKDIQLFKSKVVDSVKVCTARLFDQPKIEDPYAISFSPWNPSVHDEAREKMLTQKKPEEQHNKSVHVAGLSWVKPGSVQPFSKEEKTVAT
partner: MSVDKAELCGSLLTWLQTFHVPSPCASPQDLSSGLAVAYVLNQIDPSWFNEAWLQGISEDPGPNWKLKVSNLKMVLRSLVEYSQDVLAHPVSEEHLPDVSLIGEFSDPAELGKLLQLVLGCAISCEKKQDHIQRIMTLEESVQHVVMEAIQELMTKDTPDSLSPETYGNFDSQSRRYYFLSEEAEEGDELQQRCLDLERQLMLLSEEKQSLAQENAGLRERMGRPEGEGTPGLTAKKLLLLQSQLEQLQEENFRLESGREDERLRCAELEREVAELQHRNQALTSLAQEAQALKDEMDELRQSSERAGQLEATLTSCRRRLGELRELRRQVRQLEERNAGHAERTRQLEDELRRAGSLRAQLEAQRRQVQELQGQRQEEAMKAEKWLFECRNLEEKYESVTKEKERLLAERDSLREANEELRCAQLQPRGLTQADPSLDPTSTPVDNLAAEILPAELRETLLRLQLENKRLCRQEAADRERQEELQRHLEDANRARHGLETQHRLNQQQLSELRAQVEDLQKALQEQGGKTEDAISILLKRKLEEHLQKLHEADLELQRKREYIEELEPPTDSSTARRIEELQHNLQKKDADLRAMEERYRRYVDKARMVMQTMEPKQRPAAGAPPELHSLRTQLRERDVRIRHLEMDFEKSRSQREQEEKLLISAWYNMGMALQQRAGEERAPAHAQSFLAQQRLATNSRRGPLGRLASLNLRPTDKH
B2: AKT-interacting protein (Homo sapiens), Q9H8T0 (parent)
chain: B1 chain
partner: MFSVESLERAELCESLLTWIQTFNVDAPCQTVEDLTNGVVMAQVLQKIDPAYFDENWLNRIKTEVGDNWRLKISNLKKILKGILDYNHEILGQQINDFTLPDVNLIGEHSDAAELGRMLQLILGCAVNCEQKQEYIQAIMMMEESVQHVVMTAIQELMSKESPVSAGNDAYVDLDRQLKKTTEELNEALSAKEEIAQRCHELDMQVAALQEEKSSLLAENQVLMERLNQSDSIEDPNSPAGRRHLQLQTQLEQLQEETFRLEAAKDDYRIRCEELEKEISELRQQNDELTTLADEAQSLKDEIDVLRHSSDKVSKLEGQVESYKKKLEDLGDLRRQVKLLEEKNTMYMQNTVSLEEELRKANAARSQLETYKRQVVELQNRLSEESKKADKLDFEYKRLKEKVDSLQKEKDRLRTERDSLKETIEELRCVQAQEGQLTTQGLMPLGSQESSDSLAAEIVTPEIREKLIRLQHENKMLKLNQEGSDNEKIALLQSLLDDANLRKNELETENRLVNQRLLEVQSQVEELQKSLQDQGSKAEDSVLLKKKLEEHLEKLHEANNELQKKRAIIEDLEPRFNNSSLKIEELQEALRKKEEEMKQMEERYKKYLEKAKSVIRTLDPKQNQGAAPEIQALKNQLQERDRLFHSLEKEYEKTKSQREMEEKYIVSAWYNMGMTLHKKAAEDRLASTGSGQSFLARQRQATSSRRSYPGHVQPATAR
B3: AKT-interacting protein (Homo sapiens), Q9H8T0 (parent)
chain: B1 chain
partner: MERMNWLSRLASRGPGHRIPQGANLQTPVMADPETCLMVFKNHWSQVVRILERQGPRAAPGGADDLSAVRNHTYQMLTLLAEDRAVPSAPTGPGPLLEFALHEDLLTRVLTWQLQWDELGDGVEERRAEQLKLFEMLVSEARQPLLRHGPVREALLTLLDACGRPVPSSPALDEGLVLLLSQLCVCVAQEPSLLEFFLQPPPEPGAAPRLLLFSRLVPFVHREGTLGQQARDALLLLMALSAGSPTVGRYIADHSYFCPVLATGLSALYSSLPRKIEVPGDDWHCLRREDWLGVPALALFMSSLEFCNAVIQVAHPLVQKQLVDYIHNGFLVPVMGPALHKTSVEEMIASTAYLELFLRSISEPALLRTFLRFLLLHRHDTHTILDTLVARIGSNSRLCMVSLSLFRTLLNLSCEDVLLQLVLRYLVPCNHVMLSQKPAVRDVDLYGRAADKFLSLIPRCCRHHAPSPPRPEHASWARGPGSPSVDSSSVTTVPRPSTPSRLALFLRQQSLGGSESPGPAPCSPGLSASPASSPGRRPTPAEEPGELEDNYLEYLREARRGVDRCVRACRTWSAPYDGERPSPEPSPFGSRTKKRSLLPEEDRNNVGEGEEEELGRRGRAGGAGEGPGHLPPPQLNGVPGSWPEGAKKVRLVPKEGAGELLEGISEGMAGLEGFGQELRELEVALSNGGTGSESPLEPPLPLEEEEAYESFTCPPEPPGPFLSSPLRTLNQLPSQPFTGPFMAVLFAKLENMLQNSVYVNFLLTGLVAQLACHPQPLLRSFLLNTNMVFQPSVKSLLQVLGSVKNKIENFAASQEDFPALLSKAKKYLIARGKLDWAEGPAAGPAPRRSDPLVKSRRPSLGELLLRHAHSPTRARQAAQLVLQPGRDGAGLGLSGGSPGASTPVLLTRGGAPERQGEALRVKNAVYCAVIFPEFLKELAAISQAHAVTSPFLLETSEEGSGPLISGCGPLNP

Variants of: B1
Settings: with hook2_human HOOK2, Q96ED9

effect of a mutation on the interaction	Variant
disrupting interaction strength	W106A;F107A

Variants of: B2
Settings: with hook3_human HOOK3, Q86VS8

effect of a mutation on the interaction	Variant
decreasing interaction strength	W106A;F107A

Variants of: B3
Settings: with FHIP1B

effect of a mutation on the interaction	Variant
disrupting interaction strength	W106A;F107A
